Measurements taken from the supplement of paper PMC9112550, “Optimization of the antimicrobial peptide Bac7 by deep mutational scanning” (BMC Biology, 2022).

These sequences were tested on Escherichia coli TOP10 (assay: shrunken log2 fold change of peptide-encoding DNA abundance (4.5 h post-induction vs induction); higher = less antimicrobial activity (less host growth inhibition)). Settings: time post-induction: 4.5 h; library: site-saturation at positions 5, 18, 19, 20.
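Further: peptides expressed intracellularly from a pBAD plasmid library in pooled LB shake-flask culture, induced with 0.3% L-arabinose, DNA abundance read by NGS, three biological replicates, DESeq2 with apeglm shrinkage.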

Row | Sequence | shrunken log2 fold change
1 | RRIRDRPPRLPRPRPRPTWPPRP | 0.501
2 | RRIRDRPPRLPRPRPRPTYAPRP | 0.0176
3 | RRIRDRPPRLPRPRPRPVAMPRP | 0.633
4 | RRIRDRPPRLPRPRPRPVAYPRP | -0.0825
5 | RRIRDRPPRLPRPRPRPVEGPRP | 0.211
6 | RRIRDRPPRLPRPRPRPVFGPRP | 0.342
7 | RRIRDRPPRLPRPRPRPVFQPRP | -0.134
8 | RRIRDRPPRLPRPRPRPVHDPRP | 0.19
9 | RRIRDRPPRLPRPRPRPVHFPRP | 0.033
10 | RRIRDRPPRLPRPRPRPVHLPRP | -0.23
11 | RRIRDRPPRLPRPRPRPVIVPRP | 0.0947
12 | RRIRDRPPRLPRPRPRPVKIPRP | -0.101
13 | RRIRDRPPRLPRPRPRPVLRPRP | -0.0147
14 | RRIRDRPPRLPRPRPRPVNEPRP | 0.0314
15 | RRIRDRPPRLPRPRPRPVNPPRP | 0.342
16 | RRIRDRPPRLPRPRPRPVNWPRP | 0.188
17 | RRIRDRPPRLPRPRPRPVPFPRP | 2.99
18 | RRIRDRPPRLPRPRPRPVPPPRP | 0.453
19 | RRIRDRPPRLPRPRPRPVRVPRP | 0.908
20 | RRIRDRPPRLPRPRPRPVSHPRP | 0.00713
21 | RRIRDRPPRLPRPRPRPVTRPRP | 0.348
22 | RRIRDRPPRLPRPRPRPVYCPRP | -0.115
23 | RRIRDRPPRLPRPRPRPVYMPRP | -0.506
24 | RRIRDRPPRLPRPRPRPVYYPRP | -0.707
25 | RRIRDRPPRLPRPRPRPWAAPRP | 0.00948

Row | Sequence | shrunken log2 fold change
26 | RRIRDRPPRLPRPRPRPWALPRP | -0.000578
27 | RRIRDRPPRLPRPRPRPWCCPRP | 0.0175
28 | RRIRDRPPRLPRPRPRPWCWPRP | 0.036
29 | RRIRDRPPRLPRPRPRPWDYPRP | -0.00965
30 | RRIRDRPPRLPRPRPRPWFHPRP | -0.00884
31 | RRIRDRPPRLPRPRPRPWHMPRP | -0.301
32 | RRIRDRPPRLPRPRPRPWHRPRP | -0.017
33 | RRIRDRPPRLPRPRPRPWKMPRP | 0.0664
34 | RRIRDRPPRLPRPRPRPWLCPRP | -0.0939
35 | RRIRDRPPRLPRPRPRPWMKPRP | -0.0188
36 | RRIRDRPPRLPRPRPRPWNCPRP | -0.3
37 | RRIRDRPPRLPRPRPRPWNKPRP | -0.117
38 | RRIRDRPPRLPRPRPRPWNMPRP | -0.508
39 | RRIRDRPPRLPRPRPRPWQAPRP | -0.0194
40 | RRIRDRPPRLPRPRPRPWRCPRP | 0.26
41 | RRIRDRPPRLPRPRPRPWRVPRP | 0.28
42 | RRIRDRPPRLPRPRPRPWSYPRP | -1.29
43 | RRIRDRPPRLPRPRPRPWVNPRP | 0.0215
44 | RRIRDRPPRLPRPRPRPWYGPRP | -0.87
45 | RRIRDRPPRLPRPRPRPWYNPRP | -0.102
46 | RRIRDRPPRLPRPRPRPYDYPRP | -0.097
47 | RRIRDRPPRLPRPRPRPYEHPRP | 0.077
48 | RRIRDRPPRLPRPRPRPYEYPRP | -0.17
49 | RRIRDRPPRLPRPRPRPYFKPRP | -0.381
50 | RRIRDRPPRLPRPRPRPYFWPRP | -0.0487

Row | Sequence | shrunken log2 fold change
51 | RRIRDRPPRLPRPRPRPYFYPRP | -0.793
52 | RRIRDRPPRLPRPRPRPYGDPRP | -0.0996
53 | RRIRDRPPRLPRPRPRPYGRPRP | -0.0901
54 | RRIRDRPPRLPRPRPRPYKHPRP | -1.13
55 | RRIRDRPPRLPRPRPRPYLEPRP | -0.0399
56 | RRIRDRPPRLPRPRPRPYLPPRP | 0.00286
57 | RRIRDRPPRLPRPRPRPYLSPRP | -0.102
58 | RRIRDRPPRLPRPRPRPYMIPRP | -0.587
59 | RRIRDRPPRLPRPRPRPYNYPRP | -0.27
60 | RRIRDRPPRLPRPRPRPYQDPRP | -0.00141
61 | RRIRDRPPRLPRPRPRPYRLPRP | -0.0389
62 | RRIRDRPPRLPRPRPRPYRYPRP | -0.0188
63 | RRIRERPPRLPRPRPRPAAEPRP | 0.0581
64 | RRIRERPPRLPRPRPRPACSPRP | 0.115
65 | RRIRERPPRLPRPRPRPACYPRP | -0.308
66 | RRIRERPPRLPRPRPRPADLPRP | -0.175
67 | RRIRERPPRLPRPRPRPADNPRP | -0.03
68 | RRIRERPPRLPRPRPRPADSPRP | -0.157
69 | RRIRERPPRLPRPRPRPAECPRP | -0.0953
70 | RRIRERPPRLPRPRPRPAEMPRP | -0.0352
71 | RRIRERPPRLPRPRPRPAEVPRP | -0.0184
72 | RRIRERPPRLPRPRPRPAFAPRP | 0.206
73 | RRIRERPPRLPRPRPRPAFRPRP | -0.0607
74 | RRIRERPPRLPRPRPRPAFSPRP | 0.122
75 | RRIRERPPRLPRPRPRPAGSPRP | -0.202

Row | Sequence | shrunken log2 fold change
76 | RRIRERPPRLPRPRPRPAINPRP | -0.257
77 | RRIRERPPRLPRPRPRPAITPRP | -0.401
78 | RRIRERPPRLPRPRPRPAIWPRP | 0.129
79 | RRIRERPPRLPRPRPRPAKCPRP | -0.237
80 | RRIRERPPRLPRPRPRPAKYPRP | -0.274
81 | RRIRERPPRLPRPRPRPAMGPRP | -0.0135
82 | RRIRERPPRLPRPRPRPAMHPRP | 0.0193
83 | RRIRERPPRLPRPRPRPAMKPRP | -0.0226
84 | RRIRERPPRLPRPRPRPAMYPRP | -0.205
85 | RRIRERPPRLPRPRPRPANAPRP | -0.0563
86 | RRIRERPPRLPRPRPRPANIPRP | -0.465
87 | RRIRERPPRLPRPRPRPANQPRP | 0.0465
88 | RRIRERPPRLPRPRPRPAPGPRP | 0.325
89 | RRIRERPPRLPRPRPRPAPTPRP | 0.199
90 | RRIRERPPRLPRPRPRPAQIPRP | -0.0282
91 | RRIRERPPRLPRPRPRPAQMPRP | 0.392
92 | RRIRERPPRLPRPRPRPAQNPRP | 0.269
93 | RRIRERPPRLPRPRPRPARIPRP | -0.246
94 | RRIRERPPRLPRPRPRPASMPRP | 0.0524
95 | RRIRERPPRLPRPRPRPAVEPRP | 0.108
96 | RRIRERPPRLPRPRPRPAVMPRP | 0.0088
97 | RRIRERPPRLPRPRPRPAWDPRP | 0.0257
98 | RRIRERPPRLPRPRPRPAYEPRP | -0.00975
99 | RRIRERPPRLPRPRPRPAYFPRP | 0.019
100 | RRIRERPPRLPRPRPRPAYLPRP | -0.296

Row | Sequence | shrunken log2 fold change
101 | RRIRERPPRLPRPRPRPCALPRP | -0.319
102 | RRIRERPPRLPRPRPRPCCIPRP | 0.0508
103 | RRIRERPPRLPRPRPRPCCLPRP | -0.57
104 | RRIRERPPRLPRPRPRPCDCPRP | 0.00557
105 | RRIRERPPRLPRPRPRPCEDPRP | 0.0101
106 | RRIRERPPRLPRPRPRPCEPPRP | 0.123
107 | RRIRERPPRLPRPRPRPCFPPRP | -0.166
108 | RRIRERPPRLPRPRPRPCGDPRP | -0.231
109 | RRIRERPPRLPRPRPRPCGHPRP | 0.0222
110 | RRIRERPPRLPRPRPRPCGPPRP | -0.131
111 | RRIRERPPRLPRPRPRPCGWPRP | 0.154
112 | RRIRERPPRLPRPRPRPCHAPRP | -0.301
113 | RRIRERPPRLPRPRPRPCIKPRP | -0.363
114 | RRIRERPPRLPRPRPRPCKTPRP | 0.0029
115 | RRIRERPPRLPRPRPRPCLLPRP | -0.0977
116 | RRIRERPPRLPRPRPRPCMFPRP | -0.531
117 | RRIRERPPRLPRPRPRPCMRPRP | -0.0898
118 | RRIRERPPRLPRPRPRPCMWPRP | -0.233
119 | RRIRERPPRLPRPRPRPCNFPRP | -0.125
120 | RRIRERPPRLPRPRPRPCNLPRP | -0.904
121 | RRIRERPPRLPRPRPRPCNNPRP | -0.768
122 | RRIRERPPRLPRPRPRPCNPPRP | -0.442
123 | RRIRERPPRLPRPRPRPCNSPRP | 0.00408
124 | RRIRERPPRLPRPRPRPCPIPRP | -0.246
125 | RRIRERPPRLPRPRPRPCRDPRP | 0.0284

Row | Sequence | shrunken log2 fold change
126 | RRIRERPPRLPRPRPRPCRYPRP | -0.00318
127 | RRIRERPPRLPRPRPRPCSPPRP | -0.286
128 | RRIRERPPRLPRPRPRPCVHPRP | -0.0795
129 | RRIRERPPRLPRPRPRPCWEPRP | -0.0225
130 | RRIRERPPRLPRPRPRPCWFPRP | -0.0254
131 | RRIRERPPRLPRPRPRPCWPPRP | 0.0214
132 | RRIRERPPRLPRPRPRPCYNPRP | -0.137
133 | RRIRERPPRLPRPRPRPCYPPRP | -0.498
134 | RRIRERPPRLPRPRPRPCYSPRP | -0.704
135 | RRIRERPPRLPRPRPRPDAFPRP | -0.038
136 | RRIRERPPRLPRPRPRPDFMPRP | 0.0144
137 | RRIRERPPRLPRPRPRPDGWPRP | 0.0267
138 | RRIRERPPRLPRPRPRPDICPRP | -0.553
139 | RRIRERPPRLPRPRPRPDKNPRP | -0.383
140 | RRIRERPPRLPRPRPRPDKSPRP | -1.19
141 | RRIRERPPRLPRPRPRPDLDPRP | -0.0232
142 | RRIRERPPRLPRPRPRPDPFPRP | -0.102
143 | RRIRERPPRLPRPRPRPDPHPRP | -0.011
144 | RRIRERPPRLPRPRPRPDPVPRP | 0.181
145 | RRIRERPPRLPRPRPRPDQWPRP | 0.189
146 | RRIRERPPRLPRPRPRPDRGPRP | 0.0208
147 | RRIRERPPRLPRPRPRPDRSPRP | -0.0225
148 | RRIRERPPRLPRPRPRPDRVPRP | 0.00251
149 | RRIRERPPRLPRPRPRPDSEPRP | -0.0854
150 | RRIRERPPRLPRPRPRPDSNPRP | -0.00994
